The subject of one series is Ramos cell surface target (unidentified; human B-cell leukemia cells). Kind of series: competition. The settings on record: competition with FITC-labeled monomer on target cells, flow cytometry.
“TAGGCAGTGGTTTGACGTCCGCATGTTGGGAATAGCCACGCCT / TAGGCAGTGGTTTGACGTCCGCATGTTGGGAATAGCCACGCCT [rigid dimer of SEQ 3 aptamer]” came in with a half-maximal inhibitory concentration (IC50) of 0.0225 µM.
“TAGGCAGTGGTTTGACGTCCGCATGTTGGGAATAGCCACGCCT / TAGGCAGTGGTTTGACGTCCGCATGTTGGGAATAGCCACGCCT [flexible dimer of SEQ 3 aptamer]” gave a half-maximal inhibitory concentration (IC50) of 0.033 µM. This IC50 and that of the sequence before are within 1.5-fold of each other.
Same read-out and setting: in the case of “TAGGCAGTGGTTTGACGTCCGCATGTTGGGAATAGCCACGCCT / TAGGCAGTGGTTTGACGTCCGCATGTTGGGAATAGCCACGCCT / TAGGCAGTGGTTTGACGTCCGCATGTTGGGAATAGCCACGCCT [rigid trimer of SEQ 3 aptamer]” it was 0.0208 µM.
Take “TAGGCAGTGGTTTGACGTCCGCATGTTGGGAATAGCCACGCCT / TAGGCAGTGGTTTGACGTCCGCATGTTGGGAATAGCCACGCCT / TAGGCAGTGGTTTGACGTCCGCATGTTGGGAATAGCCACGCCT [flexible trimer of SEQ 3 aptamer]”: the half-maximal inhibitory concentration (IC50) turned out to be 0.0278 µM. This IC50 and that of the sequence before are within 1.5-fold of each other.
The same measure, in the same setting: as for “TAGGCAGTGGTTTGACGTCCGCATGTTGGGAATAGCCACGCCT / TAGGCAGTGGTTTGACGTCCGCATGTTGGGAATAGCCACGCCT / TAGGCAGTGGTTTGACGTCCGCATGTTGGGAATAGCCACGCCT / TAGGCAGTGGTTTGACGTCCGCATGTTGGGAATAGCCACGCCT [rigid tetramer of SEQ 3 aptamer]”, the figure is 0.0116 µM.

The series is the same for the next values; noted with them: unlabeled monomer vs FITC-labeled monomer on target cells, flow cytometry.
Consider “TAGGCAGTGGTTTGACGTCCGCATGTTGGGAATAGCCACGCCT [Ramos-binding ssDNA aptamer monomer]”, for which the half-inhibitory concentration (IC50) was determined as 0.4 µM.

As usually defined, the IC50 is the concentration at which inhibition is half-maximal. A high value points to weaker potency.

Source of the values: patent US20110275702.
